Experimental data taken from US20120184019A1 (University of California, published 2012).

B1: Alp7A-GFP fusion protein (OrfB of Bacillus subtilis natto plasmid pLS20 with C-terminal GFP) (other)
chain: MNISRMNVDFGNSMYMNLIDGYFFELPTNVVEISKEAAEGKFTSIVEDPADLKDRLLVSTVIDETERYFLVGELAEPEVLGNQHIKKLHNKVESHIPYVTFLAATAYYQALKGKREDNEVTIEYFQTMLPIWLLKKLDKFSEMQKRMASKFLGTHQVKVLTLGLEKELTIKVEDAACRIESEVARWAIKKNFDLEDKDYAEQFKNYDVVFCDLGGGTDDLVLLPAGLKPPKSRDSFVSNTEAPFLAHLEKLRKEKLLEHFDSVRELEKFIYSNIGKTKMERRDGNTGQKFDLTDIIKKSLKEYTEIKIAQAENTFPAPKDKVYKYLYFGGVGEVLEESISVVTEERYGRDISESNHIVAEDARLLNLYGLEVLSRAEQVKKQANEKEAQSI
notes: Observed inside living or fixed E. coli and B. subtilis cells; Not a purified protein; also called pLS20 OrfB; not shown: C-terminal GFP from plasmid pMUTIN-GFP+
B2: Alp7A(E180A)-GFP (other)
chain: MNISRMNVDFGNSMYMNLIDGYFFELPTNVVEISKEAAEGKFTSIVEDPADLKDRLLVSTVIDETERYFLVGELAEPEVLGNQHIKKLHNKVESHIPYVTFLAATAYYQALKGKREDNEVTIEYFQTMLPIWLLKKLDKFSEMQKRMASKFLGTHQVKVLTLGLEKELTIKVEDAACRIASEVARWAIKKNFDLEDKDYAEQFKNYDVVFCDLGGGTDDLVLLPAGLKPPKSRDSFVSNTEAPFLAHLEKLRKEKLLEHFDSVRELEKFIYSNIGKTKMERRDGNTGQKFDLTDIIKKSLKEYTEIKIAQAENTFPAPKDKVYKYLYFGGVGEVLEESISVVTEERYGRDISESNHIVAEDARLLNLYGLEVLSRAEQVKKQANEKEAQSI
notes: Observed in B. subtilis PY79 cells; also called mini-pLS20alp7A(E180A)-gfp product; not shown: C-terminal GFP from plasmid pMUTIN-GFP+
B3: Alp7A(D212A)-GFP (other)
chain: MNISRMNVDFGNSMYMNLIDGYFFELPTNVVEISKEAAEGKFTSIVEDPADLKDRLLVSTVIDETERYFLVGELAEPEVLGNQHIKKLHNKVESHIPYVTFLAATAYYQALKGKREDNEVTIEYFQTMLPIWLLKKLDKFSEMQKRMASKFLGTHQVKVLTLGLEKELTIKVEDAACRIESEVARWAIKKNFDLEDKDYAEQFKNYDVVFCALGGGTDDLVLLPAGLKPPKSRDSFVSNTEAPFLAHLEKLRKEKLLEHFDSVRELEKFIYSNIGKTKMERRDGNTGQKFDLTDIIKKSLKEYTEIKIAQAENTFPAPKDKVYKYLYFGGVGEVLEESISVVTEERYGRDISESNHIVAEDARLLNLYGLEVLSRAEQVKKQANEKEAQSI
notes: Observed in B. subtilis PY79 cells; also called mini-pLS20alp7A(D212A)-gfp product; not shown: C-terminal GFP from plasmid pMUTIN-GFP+
B4: Alp8A-GFP fusion protein (Orf250 of Proteus vulgaris plasmid Rts1 fused to GFP) (other)
chain: MELLRKGRSFGGLFLIKGKVMNQSERFIVGLDIGYSNVKVACGGTQLLDPKVTIFPAYATPEPESDLALAKKSPDEVKVYPNGTEWRVFTNRVGHRELHESYHSTEMYKALFYGALIKATEGRSDVIDILVTGLPVRIANSEADRSQLCESFTGKHEVTPGRFILVKEVVVLSQGVGIMNDILNTEGLISDEDLEFSNILVIDPGYYSMDYVTFHRGDKKNEFSGSSLNATSVIIEEIVRVLERDYPKEGAQETERIETALRLGNKTFNNGFRSVEIEPLIEEVSHRIVSSVVAELLKRTRSIGPVHIIISAGGGARFYDHFIKEAFPQARILQSVNPVASNSIGYWHYGVNKLSSQSD
notes: Produced in E. coli TOP10 from pEB400; also called Rts1 orf250; pPtrcalp8A-gfp product; not shown: GFP from plasmid pDSW210

Key:
[1] = molecular target: the molecule itself; experiment: self-assembly into filaments, GFP fluorescence microscopy in E. coli
[2] = molecular target: the molecule itself; experiment: self-assembly into filaments, GFP fluorescence microscopy, time-lapse and FRAP in B. subtilis
[3] = molecular target: the molecule itself; experiment: GFP fluorescence microscopy in B. subtilis (self-assembly into filaments)

Protein	binding result [1]	other results
B1	binds	–
B2	–	binding result [2]: binds
B3	–	binding result [3]: no binding
B4	binds	–
